Test results as given in patent publication US20200330588A1.

What was measured:
Assay in all cases: flow cytometry, HEK293 cells transfected with gH alanine mutant and gL; % of gH-positive cells compared to WT
[1] = target: gH alanine mutant 478-488 (label as in Table 6)
[2] = target: gH alanine mutant 480-481 transfected into HEK293 cells with gL (Human cytomegalovirus (consensus sequence; strain of the construct not stated); Human cytomegalovirus)
[3] = target: gH alanine mutant 482-483 transfected into HEK293 cells with gL (Human cytomegalovirus (consensus sequence; strain of the construct not stated); Human cytomegalovirus)
[4] = target: gH alanine mutant 484-485 transfected into HEK293 cells with gL (Human cytomegalovirus (consensus sequence; strain of the construct not stated); Human cytomegalovirus)
[5] = target: gH alanine mutant 486-487 transfected into HEK293 cells with gL (Human cytomegalovirus (consensus sequence; strain of the construct not stated); Human cytomegalovirus)
[6] = target: gH alanine mutant 488-489 transfected into HEK293 cells with gL (Human cytomegalovirus (consensus sequence; strain of the construct not stated); Human cytomegalovirus)
[7] = target: gH alanine mutant 490-491 transfected into HEK293 cells with gL (Human cytomegalovirus (consensus sequence; strain of the construct not stated); Human cytomegalovirus)
[8] = target: gH mutant 480-486 (consecutive alanine substitutions) transfected into HEK293 cells with gL (Human cytomegalovirus (consensus sequence; strain of the construct not stated); Human cytomegalovirus)
[9] = target: gH mutant 485-492 (consecutive alanine substitutions) transfected into HEK293 cells with gL (Human cytomegalovirus (consensus sequence; strain of the construct not stated); Human cytomegalovirus)

## human anti-gH monoclonal antibody MSL-109
[1]
  Avg. binding (% of mass): 100%
[2]
  Avg. binding (% of mass): 87%
[3]
  Avg. binding (% of mass): 92%
[4]
  Avg. binding (% of mass): 86%
[5]
  Avg. binding (% of mass): 66%
[6]
  Avg. binding (% of mass): 111%
[7]
  Avg. binding (% of mass): 89%
[8]
  Avg. binding (% of mass): 66%
[9]
  Avg. binding (% of mass): 65%
